Source: patent US20250304640A1 (ORIKINE BIO SL, published 2025)

T1: IL10RA (UniProt Q13651 22-578, limits assumed)
T1 sequence (looked up): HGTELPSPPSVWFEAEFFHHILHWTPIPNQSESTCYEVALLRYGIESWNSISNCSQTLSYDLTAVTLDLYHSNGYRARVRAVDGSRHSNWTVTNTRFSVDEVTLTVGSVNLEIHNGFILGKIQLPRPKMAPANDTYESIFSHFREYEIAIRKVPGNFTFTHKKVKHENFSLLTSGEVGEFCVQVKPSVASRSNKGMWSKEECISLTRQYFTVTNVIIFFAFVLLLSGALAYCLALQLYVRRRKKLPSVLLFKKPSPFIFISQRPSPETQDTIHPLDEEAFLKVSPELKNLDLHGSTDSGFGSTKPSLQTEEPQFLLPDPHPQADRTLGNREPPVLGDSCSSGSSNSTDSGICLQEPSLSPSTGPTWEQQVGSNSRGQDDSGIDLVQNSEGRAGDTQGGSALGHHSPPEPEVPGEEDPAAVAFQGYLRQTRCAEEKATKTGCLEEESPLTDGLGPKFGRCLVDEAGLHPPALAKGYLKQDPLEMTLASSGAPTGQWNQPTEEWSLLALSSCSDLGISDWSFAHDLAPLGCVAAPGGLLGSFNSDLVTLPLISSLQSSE


What follows are binders tested against CSF1 receptor (CSF1R) (UniProt P07333) (assay: cell-based or functional assay).
Chain of CSF1 receptor (CSF1R) (P07333 20-972 limits assumed): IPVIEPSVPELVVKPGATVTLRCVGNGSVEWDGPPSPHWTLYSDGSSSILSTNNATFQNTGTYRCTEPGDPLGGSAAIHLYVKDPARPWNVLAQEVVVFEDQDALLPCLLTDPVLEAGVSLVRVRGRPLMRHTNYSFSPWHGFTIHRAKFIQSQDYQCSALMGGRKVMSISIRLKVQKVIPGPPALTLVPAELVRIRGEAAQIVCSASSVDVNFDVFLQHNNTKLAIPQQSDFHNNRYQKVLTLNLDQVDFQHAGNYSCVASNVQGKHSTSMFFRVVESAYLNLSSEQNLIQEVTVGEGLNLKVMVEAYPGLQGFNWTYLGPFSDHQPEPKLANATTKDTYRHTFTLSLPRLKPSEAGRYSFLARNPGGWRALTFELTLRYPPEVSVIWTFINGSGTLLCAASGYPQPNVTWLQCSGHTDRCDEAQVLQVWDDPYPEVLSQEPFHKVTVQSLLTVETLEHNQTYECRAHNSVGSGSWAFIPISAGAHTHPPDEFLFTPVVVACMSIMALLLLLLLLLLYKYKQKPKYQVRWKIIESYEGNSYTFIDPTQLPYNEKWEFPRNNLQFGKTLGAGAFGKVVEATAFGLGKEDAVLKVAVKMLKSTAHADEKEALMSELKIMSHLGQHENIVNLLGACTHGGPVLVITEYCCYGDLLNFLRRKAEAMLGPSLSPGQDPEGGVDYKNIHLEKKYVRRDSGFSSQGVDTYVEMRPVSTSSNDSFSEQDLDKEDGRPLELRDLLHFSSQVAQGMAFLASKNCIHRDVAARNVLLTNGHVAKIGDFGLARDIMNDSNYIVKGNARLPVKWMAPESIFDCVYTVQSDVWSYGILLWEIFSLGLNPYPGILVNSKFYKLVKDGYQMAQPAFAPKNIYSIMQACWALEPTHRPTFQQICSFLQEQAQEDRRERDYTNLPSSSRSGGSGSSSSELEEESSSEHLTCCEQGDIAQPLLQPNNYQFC

| Binder | CSF1 EC-50, HEK293 CSF1R/SRE reporter | EC50, HEK293 CSF1R/SRE reporter, biological replica 1 | EC50, HEK293 CSF1R/SRE reporter, biological replica 2 | EC-50, HEK293 CSF1R/SRE reporter, biological replica 1 | EC-50, HEK293 CSF1R/SRE reporter, biological replica 2 | Max activation value, HEK293 CSF1R/SRE reporter, biological replica 1 | Max activation value, HEK293 CSF1R/SRE reporter, biological replica 2 | EC-50, HEK293 CSF1R/SRE reporter |
| --- | --- | --- | --- | --- | --- | --- | --- | --- |
| CSF1 (wild-type human CSF1) (ligand) EEVSEYCSHMIGSGHLQSLQRLIDSQMETSCQITFEFVDQEQLKDPVCYLKKAFLLVQDIMEDTMRFRDNTPNAIAIVQLQELSLRLKSCFTKDYEEHDKACVRTFYETPLQLLEKVKNVFNETKNLLDKDWNIFSKNCNNSFAECSSQD | 7.34e-10 | 1.88e-09 | 5.58e-09 | 4.52e-10 | 3.37e-10 | 8.49 | 1.14 |  |
| CSF1 H9F (ligand) EEVSEYCSFMIGSGHLQSLQRLIDSQMETSCQITFEFVDQEQLKDPVCYLKKAFLLVQDIMEDTMRFRDNTPNAIAIVQLQELSLRLKSCFTKDYEEHDKACVRTFYETPLQLLEKVKNVFNETKNLLDKDWNIFSKNCNNSFAECSSQD |  | 2.66e-09 | 1.18e-08 |  |  |  |  |  |
| CSF1 Q17R (ligand) EEVSEYCSHMIGSGHLRSLQRLIDSQMETSCQITFEFVDQEQLKDPVCYLKKAFLLVQDIMEDTMRFRDNTPNAIAIVQLQELSLRLKSCFTKDYEEHDKACVRTFYETPLQLLEKVKNVFNETKNLLDKDWNIFSKNCNNSFAECSSQD |  | 2.7e-09 | 7.94e-09 |  |  |  |  |  |
| CSF1 S18Q (ligand) EEVSEYCSHMIGSGHLQQLQRLIDSQMETSCQITFEFVDQEQLKDPVCYLKKAFLLVQDIMEDTMRFRDNTPNAIAIVQLQELSLRLKSCFTKDYEEHDKACVRTFYETPLQLLEKVKNVFNETKNLLDKDWNIFSKNCNNSFAECSSQD |  | 2.51e-09 | 1.99e-08 |  |  |  |  |  |
| CSF1 V78W (ligand) EEVSEYCSHMIGSGHLQSLQRLIDSQMETSCQITFEFVDQEQLKDPVCYLKKAFLLVQDIMEDTMRFRDNTPNAIAIWQLQELSLRLKSCFTKDYEEHDKACVRTFYETPLQLLEKVKNVFNETKNLLDKDWNIFSKNCNNSFAECSSQD |  | 6.23e-09 | 2.1e-08 |  |  |  |  |  |
| CSF1 Q79L (ligand) EEVSEYCSHMIGSGHLQSLQRLIDSQMETSCQITFEFVDQEQLKDPVCYLKKAFLLVQDIMEDTMRFRDNTPNAIAIVLLQELSLRLKSCFTKDYEEHDKACVRTFYETPLQLLEKVKNVFNETKNLLDKDWNIFSKNCNNSFAECSSQD |  | 6.76e-09 | 1.28e-08 |  |  |  |  |  |
| CSF1 Q81F (ligand) EEVSEYCSHMIGSGHLQSLQRLIDSQMETSCQITFEFVDQEQLKDPVCYLKKAFLLVQDIMEDTMRFRDNTPNAIAIVQLFELSLRLKSCFTKDYEEHDKACVRTFYETPLQLLEKVKNVFNETKNLLDKDWNIFSKNCNNSFAECSSQD |  | 1.08e-08 | 6.77e-08 |  |  |  |  |  |
| CSF1 E82K (ligand) EEVSEYCSHMIGSGHLQSLQRLIDSQMETSCQITFEFVDQEQLKDPVCYLKKAFLLVQDIMEDTMRFRDNTPNAIAIVQLQKLSLRLKSCFTKDYEEHDKACVRTFYETPLQLLEKVKNVFNETKNLLDKDWNIFSKNCNNSFAECSSQD |  | 1.27e-08 | 2.49e-08 |  |  |  |  |  |
| CSF1 V117I (ligand) EEVSEYCSHMIGSGHLQSLQRLIDSQMETSCQITFEFVDQEQLKDPVCYLKKAFLLVQDIMEDTMRFRDNTPNAIAIVQLQELSLRLKSCFTKDYEEHDKACVRTFYETPLQLLEKIKNVFNETKNLLDKDWNIFSKNCNNSFAECSSQD |  |  |  | 1e-09 | 4.37e-10 | 7.64 | 1.28 |  |
| CSF1 V120I (ligand) EEVSEYCSHMIGSGHLQSLQRLIDSQMETSCQITFEFVDQEQLKDPVCYLKKAFLLVQDIMEDTMRFRDNTPNAIAIVQLQELSLRLKSCFTKDYEEHDKACVRTFYETPLQLLEKVKNIFNETKNLLDKDWNIFSKNCNNSFAECSSQD |  |  |  | 8.8e-10 | 4.43e-10 | 8.86 | 1.37 |  |
| CSF1 A76I, V117L (ligand) EEVSEYCSHMIGSGHLQSLQRLIDSQMETSCQITFEFVDQEQLKDPVCYLKKAFLLVQDIMEDTMRFRDNTPNAIIIVQLQELSLRLKSCFTKDYEEHDKACVRTFYETPLQLLEKLKNVFNETKNLLDKDWNIFSKNCNNSFAECSSQD |  |  |  | 1.18e-09 | 5.97e-10 | 8.55 | 1.14 |  |
| CSF1 (1-190) HiBiT (ligand) EEVSEYCSHMIGSGHLQSLQRLIDSQMETSCQITFEFVDQEQLKDPVCYLKKAFLLVQDIMEDTMRFRDNTPNAIAIVQLQELSLRLKSCFTKDYEEHDKACVRTFYETPLQLLEKVKNVFNETKNLLDKDWNIFSKNCNNSFAECSSQDGGVSGWRLFKKIS |  |  |  |  |  |  |  | 1.45e-09 |

The binders below were run against T1, IL10RA (assay: cell-based or functional assay).

| Binder | EC-50, HEK-Blue IL-10 reporter cells |
| --- | --- |
| ORK10-003-HiBit R24A (ligand) MTQSENSCTHFPGNLPNMLRDLRDAFSRVKTFFQMKDQLDNLLLKESLLEDFKGYLGCQALSEMIQFYLEEVMPQAENQDPDIKAHVNSLGENLKTLRLRLRRCHRFLPCENKSKAVEQVKNAFNKLQEKGIYKAMSEFDIFINYIEAYLYKTITPEFANMLADLRDAFSRVKTFFQMKDQLDNLLLKESLLEDFKGYLGCQALSEMIQFYLEEVMPQAENQDPDIKAHVNSLGENLKTLRLRLRRCHRFLPCENKSKAVEQVKNAFNKLQEKGIYKAMSEFDIFINYIEAYMTMGGVSGWRLFKKIS | 1.51e-10 |
| ORK10-003-HiBit E50A (ligand) MTQSENSCTHFPGNLPNMLRDLRDAFSRVKTFFQMKDQLDNLLLKESLLEDFKGYLGCQALSEMIQFYLEEVMPQAENQDPDIKAHVNSLGENLKTLRLRLRRCHRFLPCENKSKAVEQVKNAFNKLQEKGIYKAMSEFDIFINYIEAYLYKTITPEFANMLRDLRDAFSRVKTFFQMKDQLDNLLLKASLLEDFKGYLGCQALSEMIQFYLEEVMPQAENQDPDIKAHVNSLGENLKTLRLRLRRCHRFLPCENKSKAVEQVKNAFNKLQEKGIYKAMSEFDIFINYIEAYMTMGGVSGWRLFKKIS | 5.43e-11 |
| ORK10-003-HiBit D44N (ligand) MTQSENSCTHFPGNLPNMLRDLRDAFSRVKTFFQMKDQLDNLLLKESLLEDFKGYLGCQALSEMIQFYLEEVMPQAENQDPDIKAHVNSLGENLKTLRLRLRRCHRFLPCENKSKAVEQVKNAFNKLQEKGIYKAMSEFDIFINYIEAYLYKTITPEFANMLRDLRDAFSRVKTFFQMKDQLNNLLLKESLLEDFKGYLGCQALSEMIQFYLEEVMPQAENQDPDIKAHVNSLGENLKTLRLRLRRCHRFLPCENKSKAVEQVKNAFNKLQEKGIYKAMSEFDIFINYIEAYMTMGGVSGWRLFKKIS | 4.37e-10 |
| ORK10-003-HiBit D44A (ligand) MTQSENSCTHFPGNLPNMLRDLRDAFSRVKTFFQMKDQLDNLLLKESLLEDFKGYLGCQALSEMIQFYLEEVMPQAENQDPDIKAHVNSLGENLKTLRLRLRRCHRFLPCENKSKAVEQVKNAFNKLQEKGIYKAMSEFDIFINYIEAYLYKTITPEFANMLRDLRDAFSRVKTFFQMKDQLANLLLKESLLEDFKGYLGCQALSEMIQFYLEEVMPQAENQDPDIKAHVNSLGENLKTLRLRLRRCHRFLPCENKSKAVEQVKNAFNKLQEKGIYKAMSEFDIFINYIEAYMTMGGVSGWRLFKKIS | 2.01e-09 |
| ORK10-003-HiBit K34A (ligand) MTQSENSCTHFPGNLPNMLRDLRDAFSRVKTFFQMKDQLDNLLLKESLLEDFKGYLGCQALSEMIQFYLEEVMPQAENQDPDIKAHVNSLGENLKTLRLRLRRCHRFLPCENKSKAVEQVKNAFNKLQEKGIYKAMSEFDIFINYIEAYLYKTITPEFANMLRDLRDAFSRVATFFQMKDQLDNLLLKESLLEDFKGYLGCQALSEMIQFYLEEVMPQAENQDPDIKAHVNSLGENLKTLRLRLRRCHRFLPCENKSKAVEQVKNAFNKLQEKGIYKAMSEFDIFINYIEAYMTMGGVSGWRLFKKIS | 9.22e-10 |
| ORK10-003-HiBit Q38A (ligand) MTQSENSCTHFPGNLPNMLRDLRDAFSRVKTFFQMKDQLDNLLLKESLLEDFKGYLGCQALSEMIQFYLEEVMPQAENQDPDIKAHVNSLGENLKTLRLRLRRCHRFLPCENKSKAVEQVKNAFNKLQEKGIYKAMSEFDIFINYIEAYLYKTITPEFANMLRDLRDAFSRVKTFFAMKDQLDNLLLKESLLEDFKGYLGCQALSEMIQFYLEEVMPQAENQDPDIKAHVNSLGENLKTLRLRLRRCHRFLPCENKSKAVEQVKNAFNKLQEKGIYKAMSEFDIFINYIEAYMTMGGVSGWRLFKKIS | 2.07e-10 |
